Our source for the normalised SPOT signal, Boehringer light units (BLU); mean over the file's lines of this peptide values is article PMC314469, “Protein Interaction Networks by Proteome Peptide Scanning” (PLoS Biology, 2004).

First the molecules themselves.
B1: YMR014W 341-353 (peptide)
chain: SDSEENEPRRKKP
B2: YDR158W 154-167 (peptide)
chain: SNSSTAGLVAPLKP
B3: YLR047C 278-291 (peptide)
chain: SLLEFPLTDLPKKP
B4: YDR178W 31-44 (peptide)
chain: SLTIPFLPVLPQKP
B5: YKR002W 264-276 (peptide)
chain: SEWNWPQPVILKP
B6: YER169W 626-639 (peptide)
chain: SDTNDIKTPHPERP
B7: YPR117W 1308-1321 (peptide)
chain: SKAGDEERFLPNRP
B8: YCR025C 79-91 (peptide)
chain: SLHWTGIPFLGKP
B9: YJL036W 11-24 (peptide)
chain: SKAKDKARGNPEKP
B10: YOR341W 710-722 (peptide)
chain: SKIVTLPPTIFKP
B11: YPR117W 1516-1529 (peptide)
chain: SGLDGILEDEPSRP
B12: YKL157W 770-782 (peptide)
chain: SGNKEAIPALIKP
B13: YMR086W 669-681 (peptide)
chain: SAIPLGTPEKGKP
B14: YKL185W 433-446 (peptide)
chain: SGKMRSRSSSPVRP
B15: YER032W 653-666 (peptide)
chain: SETKSVPSIEPFKP
B16: YDL106C 66-79 (peptide)
chain: SASSNASDSGPQRP
B17: YGR019W 2-15 (peptide)
chain: SISEQYYPEEPTKP
B18: YAL047C 42-55 (peptide)
chain: SMTTRSSHNDPIKP
B19: YPR025C 204-217 (peptide)
chain: SLKFSLLNHHPYKP
B20: YLR335W 355-367 (peptide)
chain: SIPSKNTPDASKP
B21: YOR168W 585-598 (peptide)
chain: SDDYEELATIPYRP
B22: YOR098C 775-787 (peptide)
chain: SASSTPIPVLGKP
B23: YIL115C 491-503 (peptide)
chain: SEQDATDPASAKP
B24: YBR026C 64-77 (peptide)
chain: SDINQLQGVYPSRP
B25: YJL147C 308-321 (peptide)
chain: SIQSKIMLESPKKP
B26: YOL008W 79-91 (peptide)
chain: SFVDKRNPVDNKP
B27: YGR154C 61-73 (peptide)
chain: SKGARFLPAPHRP
B28: YPR112C 621-633 (peptide)
chain: SAKEEENPVEVKP
B29: YOR205C 26-39 (peptide)
chain: SSSIKLQDQDPSKP
B30: YKL077W 80-92 (peptide)
chain: SLEHDGRPKTIKP
B31: YDL025C 107-120 (peptide)
chain: SAKKAPIDYSPSRP
B32: YPR079W 40-53 (peptide)
chain: SHKQKRTLANPDKP
B33: YJL041W 617-629 (peptide)
chain: SLKLNSKPVELKP
B34: YKL097C 59-72 (peptide)
chain: SSSLPLPKLRPPRP
B35: YML035C 237-249 (peptide)
chain: SDTKTVVPVTNKP
B36: YLR430W 1001-1014 (peptide)
chain: SANAKLHRTKPVKP
B37: YHR099W 1329-1341 (peptide)
chain: SKQFLLSPIFAKP
B38: YOR266W 165-178 (peptide)
chain: SLPTSSSAKAPLRP
B39: YER118C 2-14 (peptide)
chain: SISSKIRPTPRKP
B40: YPL141C 761-773 (peptide)
chain: SKRKPSPPSQRRP
B41: YHR208W 26-39 (peptide)
chain: SKLKITRNPNPSKP
B42: YMR231W 646-659 (peptide)
chain: SHEHEEPTYHPPKP
B43: YNR049C 146-159 (peptide)
chain: SATPRRASSRPTRP
B44: YKL077W 65-77 (peptide)
chain: SEKPEETPNPLKP
B45: YDL142C 9-22 (peptide)
chain: SSSALLRRTIPKRP
B46: YNL034W 543-555 (peptide)
chain: SAPQLTVPEPSKP
B47: YDR538W 41-54 (peptide)
chain: SKEVTRASTSPPRP
B48: YHR209W 240-253 (peptide)
chain: SIYTSWARDNPSKP
B49: YLR164W 23-36 (peptide)
chain: SFTIPFLPKIPQKP
B50: YMR284W 586-598 (peptide)
chain: SIKEEKKPFDKKP
B51: YBR118W 394-407 (peptide)
chain: SGDAALVKFVPSKP
B52: YDL240W 56-69 (peptide)
chain: SSFTSQDSQKPLKP
B53: YJR138W 1326-1339 (peptide)
chain: SNASVADAKEPSRP
B54: YPR182W 5-17 (peptide)
chain: SDISAMQPVNPKP

The test addresses T1, Abp1 SH3 (ABP1_YEAST), P15891.
T1 chain: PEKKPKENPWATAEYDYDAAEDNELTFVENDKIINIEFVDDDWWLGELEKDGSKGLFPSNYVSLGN
The experiment in a line: SPOT array.
With B1, the normalised SPOT signal, Boehringer light units (BLU); mean over the file's lines of this peptide worked out at 93.2.

Molecule B2 displayed a normalised SPOT signal, Boehringer light units (BLU); mean over the file's lines of this peptide of 61.1. In the case of B3 it was 118.

The molecule B4 gave a normalised SPOT signal, Boehringer light units (BLU); mean over the file's lines of this peptide of 129. For B5 the value was 54.4. For B6 the value was 114; for B7, 144. With B8, the normalised SPOT signal, Boehringer light units (BLU); mean over the file's lines of this peptide was determined as 116. For B9 the value was 124; for B10, 159; for B11, 30.6. In the case of B12 it was 82.8; in that of B13, 105; in that of B14, 560. In the case of B15 it was 62.5; in that of B16, 172; in that of B17, 60.4.

On to B18, for which the normalised SPOT signal, Boehringer light units (BLU); mean over the file's lines of this peptide stood at 205. In the case of B19 it was 186. B20 came in with a normalised SPOT signal, Boehringer light units (BLU); mean over the file's lines of this peptide of 64.2. For B21 the value was 45.7. For B22 the value was 100; for B23, 49.3. For B24 the value was 98.7; for B25, 289; for B26, 92.9. B27 displayed a normalised SPOT signal, Boehringer light units (BLU); mean over the file's lines of this peptide of 1020. In the case of B28 it was 63.3; in that of B29, 46. For the molecule B30, the normalised SPOT signal, Boehringer light units (BLU); mean over the file's lines of this peptide was 56.6. B31: the normalised SPOT signal, Boehringer light units (BLU); mean over the file's lines of this peptide amounted to 0.

B32 registered a normalised SPOT signal, Boehringer light units (BLU); mean over the file's lines of this peptide of 164. In the case of B33 it was 27.9.

Turning to B34, the normalised SPOT signal, Boehringer light units (BLU); mean over the file's lines of this peptide came to 5200.

B35 gave a normalised SPOT signal, Boehringer light units (BLU); mean over the file's lines of this peptide of 28.6. For B36 the value was 138.

Take B37: the normalised SPOT signal, Boehringer light units (BLU); mean over the file's lines of this peptide is 169. For B38 the value was 37.9; for B39, 15700. In the case of B40 it was 6670. Molecule B41 gave a normalised SPOT signal, Boehringer light units (BLU); mean over the file's lines of this peptide of 115.

Molecule B42 registered a normalised SPOT signal, Boehringer light units (BLU); mean over the file's lines of this peptide of 9.2.

B43 came in with a normalised SPOT signal, Boehringer light units (BLU); mean over the file's lines of this peptide of 88.9. B44 showed a normalised SPOT signal, Boehringer light units (BLU); mean over the file's lines of this peptide of 85.4. For B45 the value was 253; for B46, 52.2; for B47, 226.

Consider B48, for which the normalised SPOT signal, Boehringer light units (BLU); mean over the file's lines of this peptide turned out to be 178. B49 gave a normalised SPOT signal, Boehringer light units (BLU); mean over the file's lines of this peptide of 22800. For the molecule B50, the normalised SPOT signal, Boehringer light units (BLU); mean over the file's lines of this peptide turned out to be 92.3.

Consider B51, for which the normalised SPOT signal, Boehringer light units (BLU); mean over the file's lines of this peptide came to 52.8. In the case of B52 it was 113.

On to B53, for which the normalised SPOT signal, Boehringer light units (BLU); mean over the file's lines of this peptide amounted to 46.

In turn, B54 came in with a normalised SPOT signal, Boehringer light units (BLU); mean over the file's lines of this peptide of 124.
